Results as given in IntAct's records for PubMed 15234987.

Biological target: fog1_mouse Zfpm1 (UniProt O35615)
Sequence (O35615 whole entry): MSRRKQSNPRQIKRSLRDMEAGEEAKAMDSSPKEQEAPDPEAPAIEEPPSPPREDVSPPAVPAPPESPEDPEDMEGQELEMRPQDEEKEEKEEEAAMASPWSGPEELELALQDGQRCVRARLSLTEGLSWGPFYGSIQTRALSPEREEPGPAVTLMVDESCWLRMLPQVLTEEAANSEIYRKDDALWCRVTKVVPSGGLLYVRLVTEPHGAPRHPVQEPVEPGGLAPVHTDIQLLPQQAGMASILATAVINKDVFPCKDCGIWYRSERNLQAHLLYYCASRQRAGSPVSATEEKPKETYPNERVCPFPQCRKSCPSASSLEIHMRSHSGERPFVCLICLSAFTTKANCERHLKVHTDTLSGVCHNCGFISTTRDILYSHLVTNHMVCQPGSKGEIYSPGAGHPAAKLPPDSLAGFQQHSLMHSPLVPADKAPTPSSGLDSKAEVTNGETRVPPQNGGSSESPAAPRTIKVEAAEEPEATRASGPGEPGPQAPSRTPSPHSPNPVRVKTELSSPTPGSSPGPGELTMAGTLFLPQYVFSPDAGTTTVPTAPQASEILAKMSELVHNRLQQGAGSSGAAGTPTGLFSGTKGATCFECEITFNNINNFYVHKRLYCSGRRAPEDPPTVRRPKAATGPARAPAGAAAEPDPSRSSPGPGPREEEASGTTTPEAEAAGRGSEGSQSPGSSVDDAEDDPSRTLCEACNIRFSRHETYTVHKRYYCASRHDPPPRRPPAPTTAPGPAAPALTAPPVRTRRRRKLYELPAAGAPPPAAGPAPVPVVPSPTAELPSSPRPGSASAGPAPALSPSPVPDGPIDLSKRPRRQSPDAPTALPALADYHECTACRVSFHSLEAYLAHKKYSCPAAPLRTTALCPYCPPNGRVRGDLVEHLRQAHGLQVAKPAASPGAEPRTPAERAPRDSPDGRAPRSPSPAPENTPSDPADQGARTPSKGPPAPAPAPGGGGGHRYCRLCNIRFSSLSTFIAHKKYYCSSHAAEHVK

Sequence of Transforming acidic coiled-coil-containing protein 3 (Mus musculus), Q9JJ11 E629A;K630A (Q9JJ11 whole entry E629A/K630A): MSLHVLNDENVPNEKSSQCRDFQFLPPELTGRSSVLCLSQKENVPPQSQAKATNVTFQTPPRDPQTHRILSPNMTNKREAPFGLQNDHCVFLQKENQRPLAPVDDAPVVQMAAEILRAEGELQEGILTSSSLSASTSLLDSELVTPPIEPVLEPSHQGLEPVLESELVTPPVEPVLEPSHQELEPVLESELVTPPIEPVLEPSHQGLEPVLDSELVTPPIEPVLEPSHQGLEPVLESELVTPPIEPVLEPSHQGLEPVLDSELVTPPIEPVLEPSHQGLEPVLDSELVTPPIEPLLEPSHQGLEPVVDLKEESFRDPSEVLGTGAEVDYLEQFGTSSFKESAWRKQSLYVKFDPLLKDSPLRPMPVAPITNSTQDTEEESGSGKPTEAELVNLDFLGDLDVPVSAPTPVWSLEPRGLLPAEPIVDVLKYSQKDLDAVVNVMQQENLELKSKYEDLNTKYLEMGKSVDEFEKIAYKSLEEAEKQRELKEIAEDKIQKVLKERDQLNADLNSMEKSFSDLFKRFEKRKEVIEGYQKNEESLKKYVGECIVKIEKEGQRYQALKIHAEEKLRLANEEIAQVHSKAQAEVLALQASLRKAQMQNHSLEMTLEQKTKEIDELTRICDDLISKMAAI
Sequence of Transforming acidic coiled-coil-containing protein 3 (Mus musculus), Q9JJ11 I625A;S626A (Q9JJ11 whole entry I625A/S626A): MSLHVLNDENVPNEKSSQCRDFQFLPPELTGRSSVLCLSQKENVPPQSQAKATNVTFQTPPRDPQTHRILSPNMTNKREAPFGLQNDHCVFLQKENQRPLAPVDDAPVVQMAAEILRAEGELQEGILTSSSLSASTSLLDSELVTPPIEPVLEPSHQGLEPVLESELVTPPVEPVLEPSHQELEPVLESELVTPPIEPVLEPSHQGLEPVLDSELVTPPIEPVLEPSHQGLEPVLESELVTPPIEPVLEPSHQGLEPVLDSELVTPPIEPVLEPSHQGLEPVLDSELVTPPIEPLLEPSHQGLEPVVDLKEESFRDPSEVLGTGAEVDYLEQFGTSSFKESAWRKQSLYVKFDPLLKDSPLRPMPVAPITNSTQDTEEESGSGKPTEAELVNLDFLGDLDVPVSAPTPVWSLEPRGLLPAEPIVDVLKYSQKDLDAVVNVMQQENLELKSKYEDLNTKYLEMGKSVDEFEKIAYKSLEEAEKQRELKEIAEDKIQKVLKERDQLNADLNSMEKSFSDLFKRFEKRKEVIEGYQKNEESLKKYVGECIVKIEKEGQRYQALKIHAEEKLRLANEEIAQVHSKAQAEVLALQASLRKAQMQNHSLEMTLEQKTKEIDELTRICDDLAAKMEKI
Sequence of Transforming acidic coiled-coil-containing protein 3 (Mus musculus), Q9JJ11 R619A;I620A (Q9JJ11 whole entry R619A/I620A): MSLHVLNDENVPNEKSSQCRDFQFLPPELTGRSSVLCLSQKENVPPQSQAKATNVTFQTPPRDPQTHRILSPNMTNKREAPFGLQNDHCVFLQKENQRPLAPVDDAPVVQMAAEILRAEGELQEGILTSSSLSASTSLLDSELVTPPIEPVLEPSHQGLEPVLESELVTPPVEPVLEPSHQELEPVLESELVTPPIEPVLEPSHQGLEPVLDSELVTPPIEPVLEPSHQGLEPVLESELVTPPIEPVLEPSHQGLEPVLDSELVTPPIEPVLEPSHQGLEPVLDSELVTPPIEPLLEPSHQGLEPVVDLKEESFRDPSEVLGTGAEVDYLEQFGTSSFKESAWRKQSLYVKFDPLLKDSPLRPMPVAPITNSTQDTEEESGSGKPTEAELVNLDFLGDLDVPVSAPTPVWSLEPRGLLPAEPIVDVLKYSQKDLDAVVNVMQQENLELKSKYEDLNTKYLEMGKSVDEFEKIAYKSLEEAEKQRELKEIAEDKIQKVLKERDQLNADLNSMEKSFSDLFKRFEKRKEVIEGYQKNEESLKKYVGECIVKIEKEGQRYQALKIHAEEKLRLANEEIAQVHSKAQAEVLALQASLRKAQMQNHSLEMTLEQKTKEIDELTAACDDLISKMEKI
Sequence of Transforming acidic coiled-coil-containing protein 3 (Mus musculus), Q9JJ11 D622A;D623A (Q9JJ11 whole entry D622A/D623A): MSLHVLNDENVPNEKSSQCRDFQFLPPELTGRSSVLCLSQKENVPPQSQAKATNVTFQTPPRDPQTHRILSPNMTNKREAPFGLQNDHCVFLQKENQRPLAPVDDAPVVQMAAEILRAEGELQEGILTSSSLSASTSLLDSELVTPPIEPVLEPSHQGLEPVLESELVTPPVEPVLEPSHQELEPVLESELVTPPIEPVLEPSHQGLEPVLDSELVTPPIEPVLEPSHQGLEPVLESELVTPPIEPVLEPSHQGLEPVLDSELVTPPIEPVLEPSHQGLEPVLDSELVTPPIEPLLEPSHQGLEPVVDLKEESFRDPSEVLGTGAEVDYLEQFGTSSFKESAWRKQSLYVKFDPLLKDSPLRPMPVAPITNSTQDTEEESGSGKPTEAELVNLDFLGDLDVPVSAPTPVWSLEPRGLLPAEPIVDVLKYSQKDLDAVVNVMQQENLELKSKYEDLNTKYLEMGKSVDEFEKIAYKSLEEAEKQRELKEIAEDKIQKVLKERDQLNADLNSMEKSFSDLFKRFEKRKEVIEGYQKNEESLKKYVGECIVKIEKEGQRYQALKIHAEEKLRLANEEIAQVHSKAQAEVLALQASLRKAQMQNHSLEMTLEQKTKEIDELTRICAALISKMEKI
Sequence of Transforming acidic coiled-coil-containing protein 3 (Mus musculus), Q9JJ11 D615A;E616A (Q9JJ11 whole entry D615A/E616A): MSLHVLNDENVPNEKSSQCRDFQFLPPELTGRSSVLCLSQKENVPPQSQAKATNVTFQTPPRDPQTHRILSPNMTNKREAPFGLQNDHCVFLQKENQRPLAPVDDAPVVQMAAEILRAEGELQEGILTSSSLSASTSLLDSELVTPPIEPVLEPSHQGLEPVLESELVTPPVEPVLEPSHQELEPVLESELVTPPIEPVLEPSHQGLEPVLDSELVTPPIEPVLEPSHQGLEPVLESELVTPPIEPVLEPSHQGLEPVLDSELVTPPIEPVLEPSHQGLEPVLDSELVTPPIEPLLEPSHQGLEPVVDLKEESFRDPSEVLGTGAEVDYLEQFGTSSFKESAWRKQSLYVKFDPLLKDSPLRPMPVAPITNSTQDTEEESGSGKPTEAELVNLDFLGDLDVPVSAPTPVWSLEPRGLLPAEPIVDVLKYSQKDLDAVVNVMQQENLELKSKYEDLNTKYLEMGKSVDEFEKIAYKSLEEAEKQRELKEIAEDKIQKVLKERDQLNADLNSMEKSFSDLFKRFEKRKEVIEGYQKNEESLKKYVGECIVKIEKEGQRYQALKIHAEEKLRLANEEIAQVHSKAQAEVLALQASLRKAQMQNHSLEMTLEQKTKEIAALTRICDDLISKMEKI

Row | Substance | effect of a mutation on the interaction
1 | Transforming acidic coiled-coil-containing protein 3 (Mus musculus), Q9JJ11 D615A;E616A | decreasing interaction
2 | Transforming acidic coiled-coil-containing protein 3 (Mus musculus), Q9JJ11 D622A;D623A | decreasing interaction
3 | Transforming acidic coiled-coil-containing protein 3 (Mus musculus), Q9JJ11 E629A;K630A | decreasing interaction
4 | Transforming acidic coiled-coil-containing protein 3 (Mus musculus), Q9JJ11 I625A;S626A | decreasing interaction
5 | Transforming acidic coiled-coil-containing protein 3 (Mus musculus), Q9JJ11 R619A;I620A | decreasing interaction
